Reference: US20050090448A1 (BAXTER INTERNATIONAL, published 2005)
Bridges are numbered along the chain shown (N, C = ends). Where no end group is shown, it is not given here.

Biological target: complement component C5 in pooled human plasma (human, UniProt P01031 19-1676)
Assay: cell-based or functional assay

Sequence of complement component C5 in pooled human plasma (P01031 19-1676 limits assumed): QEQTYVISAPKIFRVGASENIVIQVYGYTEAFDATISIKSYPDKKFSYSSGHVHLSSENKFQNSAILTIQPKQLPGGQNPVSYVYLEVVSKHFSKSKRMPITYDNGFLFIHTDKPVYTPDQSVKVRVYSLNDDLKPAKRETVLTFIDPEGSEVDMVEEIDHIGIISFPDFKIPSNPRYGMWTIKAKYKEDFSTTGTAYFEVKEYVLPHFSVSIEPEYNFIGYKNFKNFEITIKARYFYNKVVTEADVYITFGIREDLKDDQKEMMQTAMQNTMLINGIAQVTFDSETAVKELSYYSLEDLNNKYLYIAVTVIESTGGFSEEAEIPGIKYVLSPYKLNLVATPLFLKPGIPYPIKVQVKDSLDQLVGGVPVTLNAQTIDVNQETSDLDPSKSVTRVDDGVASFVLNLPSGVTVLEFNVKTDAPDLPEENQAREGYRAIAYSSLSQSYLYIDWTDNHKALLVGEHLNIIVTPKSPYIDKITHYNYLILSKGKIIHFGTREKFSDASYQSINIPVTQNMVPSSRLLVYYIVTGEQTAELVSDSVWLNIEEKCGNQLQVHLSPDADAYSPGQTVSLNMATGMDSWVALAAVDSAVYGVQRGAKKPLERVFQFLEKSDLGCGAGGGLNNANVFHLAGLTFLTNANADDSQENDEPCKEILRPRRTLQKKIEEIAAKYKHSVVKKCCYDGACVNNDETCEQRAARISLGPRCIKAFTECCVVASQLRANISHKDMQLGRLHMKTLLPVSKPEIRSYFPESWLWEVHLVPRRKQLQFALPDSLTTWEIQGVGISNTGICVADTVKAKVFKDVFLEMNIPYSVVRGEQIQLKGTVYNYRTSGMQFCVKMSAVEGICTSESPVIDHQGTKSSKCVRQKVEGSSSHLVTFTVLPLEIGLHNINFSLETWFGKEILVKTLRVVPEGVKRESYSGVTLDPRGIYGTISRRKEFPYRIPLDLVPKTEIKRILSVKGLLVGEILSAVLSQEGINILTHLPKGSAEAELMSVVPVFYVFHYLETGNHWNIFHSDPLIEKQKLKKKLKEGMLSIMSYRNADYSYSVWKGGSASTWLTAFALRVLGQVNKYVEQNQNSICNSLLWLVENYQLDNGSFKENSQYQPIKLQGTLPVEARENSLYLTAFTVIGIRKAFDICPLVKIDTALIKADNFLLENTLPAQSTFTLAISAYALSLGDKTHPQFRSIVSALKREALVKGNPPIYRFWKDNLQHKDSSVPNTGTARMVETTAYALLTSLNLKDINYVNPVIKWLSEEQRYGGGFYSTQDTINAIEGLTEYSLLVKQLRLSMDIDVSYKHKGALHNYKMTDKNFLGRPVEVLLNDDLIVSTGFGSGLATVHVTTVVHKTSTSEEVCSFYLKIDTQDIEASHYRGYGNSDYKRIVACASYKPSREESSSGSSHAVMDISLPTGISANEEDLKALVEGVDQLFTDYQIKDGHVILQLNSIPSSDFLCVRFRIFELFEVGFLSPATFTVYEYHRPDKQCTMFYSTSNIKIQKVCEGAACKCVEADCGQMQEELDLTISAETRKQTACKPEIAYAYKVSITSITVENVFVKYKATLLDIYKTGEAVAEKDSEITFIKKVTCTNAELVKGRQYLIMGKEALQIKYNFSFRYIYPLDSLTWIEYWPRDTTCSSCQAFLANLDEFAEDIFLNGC

Binder | IC50 of inhibition of classical pathway hemolysis (antibody sensitized sheep erythrocytes, human plasma)
SFNDLLWRWEWP [Peptide 7 (SEQ ID NO 7)] | 48.9 µM
TQDNRWEFPLRV [Peptide 13 (SEQ ID NO 13)] | 29.2 µM
DSTWTNFRWEFY [Peptide 8 (SEQ ID NO 8)] | 5.8 µM
SDMCAAPWLCPV (disulfide 4-10 (inferred)) [Peptide 6 (SEQ ID NO 6)] | 3 µM
